Assay results published in US20030232753A1.
“And” between values parts separate entries of the source, which are not always exact repeats. Equal values may be shown once. Read-outs that look alike come from different tables or passages of the source.

How the values were obtained:
Test in all cases: cell-based or functional assay
[1] = target: H6-N′-cys-tTF219 (human) (UniProt P13726)
[2] = target: H6-tTF219-cys-C′ (human) (UniProt P13726)
[3] = target: H6-tTF220-cys-C′ (human) (UniProt P13726)
[4] = target: H6-tTF221-cys-C′ (human) (UniProt P13726)
H6-tTF221-cys-C′ (human), sequence (P13726 other isoform, or with tags, fused parts or gaps limits assumed): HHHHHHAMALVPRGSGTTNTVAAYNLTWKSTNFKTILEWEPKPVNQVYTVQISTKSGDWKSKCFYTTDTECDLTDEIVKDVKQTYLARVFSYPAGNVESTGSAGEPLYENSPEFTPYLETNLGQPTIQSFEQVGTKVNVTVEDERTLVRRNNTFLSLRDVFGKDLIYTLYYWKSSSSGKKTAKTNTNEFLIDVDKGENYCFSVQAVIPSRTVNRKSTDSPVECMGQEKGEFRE

[5] = target: IgG-H6-N′-cys-tTF219 (human) (UniProt P13726)
IgG-H6-N′-cys-tTF219 (human), sequence (P13726 other isoform, or with tags, fused parts or gaps limits assumed): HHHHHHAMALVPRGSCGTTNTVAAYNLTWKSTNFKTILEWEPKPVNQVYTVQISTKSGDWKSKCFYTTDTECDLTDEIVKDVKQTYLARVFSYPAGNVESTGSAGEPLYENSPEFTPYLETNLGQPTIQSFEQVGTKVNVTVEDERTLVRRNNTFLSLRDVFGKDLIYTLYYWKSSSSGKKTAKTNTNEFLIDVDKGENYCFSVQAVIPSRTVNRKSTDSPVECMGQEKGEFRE

[6] = target: tTF219, truncated Tissue Factor (extracellular domain of mature Tissue Factor, amino acids 1-219) (human) (UniProt P13726)
tTF219, truncated Tissue Factor (extracellular domain of mature Tissue Factor, amino acids 1-219) (human), sequence (P13726 other isoform, or with tags, fused parts or gaps): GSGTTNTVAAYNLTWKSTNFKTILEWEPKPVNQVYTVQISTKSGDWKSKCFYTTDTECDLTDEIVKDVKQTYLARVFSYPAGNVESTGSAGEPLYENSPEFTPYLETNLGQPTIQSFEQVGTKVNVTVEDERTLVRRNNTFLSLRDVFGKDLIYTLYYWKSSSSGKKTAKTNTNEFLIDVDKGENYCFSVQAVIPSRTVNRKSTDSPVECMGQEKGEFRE

[7] = target: tTF220-cys-C′ (human) (UniProt P13726)
tTF220-cys-C′ (human), sequence (P13726 other isoform, or with tags, fused parts or gaps): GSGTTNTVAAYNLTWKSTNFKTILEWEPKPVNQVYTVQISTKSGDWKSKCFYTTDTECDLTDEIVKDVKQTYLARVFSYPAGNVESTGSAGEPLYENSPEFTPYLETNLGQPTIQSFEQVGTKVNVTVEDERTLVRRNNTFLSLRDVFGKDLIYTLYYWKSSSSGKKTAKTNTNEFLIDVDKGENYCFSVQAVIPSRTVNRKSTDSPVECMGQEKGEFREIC

[8] = target: tTF221-cys-C′ (human) (UniProt P13726)
tTF221-cys-C′ (human), sequence (P13726 other isoform, or with tags, fused parts or gaps): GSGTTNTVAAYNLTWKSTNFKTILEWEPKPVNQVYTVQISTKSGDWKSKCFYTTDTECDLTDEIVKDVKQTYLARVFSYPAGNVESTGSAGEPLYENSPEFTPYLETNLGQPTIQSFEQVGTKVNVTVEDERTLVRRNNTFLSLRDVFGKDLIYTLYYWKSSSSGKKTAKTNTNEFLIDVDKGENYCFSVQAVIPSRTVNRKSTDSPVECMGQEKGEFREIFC

[9] = target: tTF219, truncated Tissue Factor (extracellular domain of mature Tissue Factor, amino acids 1-219) (human) (UniProt P13726); remark: listed apart in the source
[10] = target: H6-N′-cys-tTF219 dimer (human) (UniProt P13726)
[11] = target: H6-tTF221-cys-C′ (human) (UniProt P13726); remark: listed apart in the source
[12] = target: H6-tTF221-cys-C′ dimer (human) (UniProt P13726)
[13] = target: tTF219, truncated Tissue Factor (extracellular domain of mature Tissue Factor, amino acids 1-219) (human) (UniProt P13726); remark: listed apart in the source
[14] = target: H6-N′-cys-tTF219 (human) (UniProt P13726); remark: listed apart in the source
[15] = target: IgG-H6-N′-cys-tTF219 (human) (UniProt P13726); remark: listed apart in the source
[16] = target: tTF219, truncated Tissue Factor (extracellular domain of mature Tissue Factor, amino acids 1-219) (human) (UniProt P13726); remark: listed apart in the source

H6-tTF219-cys-C′ (human), sequence (P13726 other isoform, or with tags, fused parts or gaps): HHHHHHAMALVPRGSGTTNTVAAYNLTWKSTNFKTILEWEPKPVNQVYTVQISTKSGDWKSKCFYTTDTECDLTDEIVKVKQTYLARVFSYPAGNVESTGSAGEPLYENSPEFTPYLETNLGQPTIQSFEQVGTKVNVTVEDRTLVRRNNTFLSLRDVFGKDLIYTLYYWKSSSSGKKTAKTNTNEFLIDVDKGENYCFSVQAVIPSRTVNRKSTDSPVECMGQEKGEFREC

B21-2/10H10 bispecific antibody (Fab′ arm of the B21-2 antibody, specific for I-A^d, linked to the Fab′ arm of the 10H10 antibody, specific for tTF)
tTF concentration giving coagulation in 50 seconds [1]: 3 nM | tTF concentration giving coagulation in 50 seconds [2]: 3 nM | tTF concentration giving coagulation in 50 seconds [3]: 500 pM | tTF concentration giving coagulation in 50 seconds [4]: 500 pM | fold less active than H6-N′-cys-tTF219 at inducing Xa formation [5]: 2 fold | clotting time [6]: 60 s | clotting time (time for the first fibrin strands to form), mouse plasma on A20 cells [6]: 36 s | tTF concentration giving coagulation in 50 seconds [6]: 500 pM | tTF concentration giving coagulation in 50 seconds [7]: 500 pM | tTF concentration giving coagulation in 50 seconds [8]: 500 pM | tTF concentration giving coagulation in 50 seconds [9]: 3 nM | tTF concentration giving coagulation in 50 seconds [10]: 100 pM and 200 pM | tTF concentration giving coagulation in 50 seconds [11]: 1 nM | fold less active than H6-tTF221-cys-C′ monomer or tTF219 at inducing coagulation [12]: 4 fold | tTF concentration giving coagulation in 50 seconds [12]: 4 nM | tTF concentration giving coagulation in 50 seconds [13]: 100 pM and 200 pM | tTF concentration giving coagulation in 50 seconds [14]: 1 nM | fold reduction of coagulation inducing activity relative to unconjugated H6-N′-cys-tTF219 or tTF219 [15]: 5 fold | tTF concentration giving coagulation in 50 seconds [15]: 5 nM | tTF concentration giving coagulation in 50 seconds [16]: 1 nM
